The values below come from patent EP2658867B1 (Avidbiotics Corp., dated 2018).

For assay [1], the target named is T1, integrin αVβ3 (UniProt P06756 31-992; P05106 27-718).
T1 construct: Coated on the ELISA plate
Put plainly: ELISA, integrin coated, anti-MICA-HRP. For orientation: In an ELISA, binding on a coated surface is turned into a signal by an enzyme label.

The target in assay [2] is T2, integrin αVβ5 (UniProt P06756 31-992; P18084 24-719).
T2 construct: Coated on the ELISA plate
Put plainly: ELISA, integrin coated, anti-MICA-HRP.

The target of assay [3] is T1, integrin αVβ3. Description: phage ELISA, integrin coated, anti-M13-HRP.
The target of assay [4] is T2, integrin αVβ5. Put plainly: phage ELISA, integrin coated, anti-M13-HRP.

T2 sequence (P06756 31-992, chain 1 of 2): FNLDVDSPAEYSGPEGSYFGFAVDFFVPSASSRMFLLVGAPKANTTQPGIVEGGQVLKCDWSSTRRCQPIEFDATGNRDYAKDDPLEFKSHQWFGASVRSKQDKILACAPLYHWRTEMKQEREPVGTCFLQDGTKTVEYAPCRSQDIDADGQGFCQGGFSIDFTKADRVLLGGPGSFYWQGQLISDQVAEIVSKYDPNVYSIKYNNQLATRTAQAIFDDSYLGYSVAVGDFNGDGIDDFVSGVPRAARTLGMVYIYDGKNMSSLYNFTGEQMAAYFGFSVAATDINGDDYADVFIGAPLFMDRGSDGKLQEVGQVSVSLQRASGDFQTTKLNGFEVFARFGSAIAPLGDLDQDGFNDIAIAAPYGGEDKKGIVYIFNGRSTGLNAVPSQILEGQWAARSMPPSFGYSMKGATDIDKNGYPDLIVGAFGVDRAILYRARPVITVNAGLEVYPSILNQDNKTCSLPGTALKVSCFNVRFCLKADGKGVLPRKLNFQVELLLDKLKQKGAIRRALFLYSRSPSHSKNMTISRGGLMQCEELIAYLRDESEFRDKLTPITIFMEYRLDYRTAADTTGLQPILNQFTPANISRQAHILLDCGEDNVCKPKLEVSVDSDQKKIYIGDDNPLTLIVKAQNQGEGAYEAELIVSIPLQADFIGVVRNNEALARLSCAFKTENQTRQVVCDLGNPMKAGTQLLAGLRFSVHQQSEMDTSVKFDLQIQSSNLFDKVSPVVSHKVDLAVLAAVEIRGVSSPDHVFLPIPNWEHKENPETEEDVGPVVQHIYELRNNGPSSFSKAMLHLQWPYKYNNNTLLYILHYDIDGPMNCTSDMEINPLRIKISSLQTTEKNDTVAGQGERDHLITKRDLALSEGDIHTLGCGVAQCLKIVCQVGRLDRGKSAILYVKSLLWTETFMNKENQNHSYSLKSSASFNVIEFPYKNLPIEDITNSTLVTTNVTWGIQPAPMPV
T2 sequence (P18084 24-719, chain 2 of 2): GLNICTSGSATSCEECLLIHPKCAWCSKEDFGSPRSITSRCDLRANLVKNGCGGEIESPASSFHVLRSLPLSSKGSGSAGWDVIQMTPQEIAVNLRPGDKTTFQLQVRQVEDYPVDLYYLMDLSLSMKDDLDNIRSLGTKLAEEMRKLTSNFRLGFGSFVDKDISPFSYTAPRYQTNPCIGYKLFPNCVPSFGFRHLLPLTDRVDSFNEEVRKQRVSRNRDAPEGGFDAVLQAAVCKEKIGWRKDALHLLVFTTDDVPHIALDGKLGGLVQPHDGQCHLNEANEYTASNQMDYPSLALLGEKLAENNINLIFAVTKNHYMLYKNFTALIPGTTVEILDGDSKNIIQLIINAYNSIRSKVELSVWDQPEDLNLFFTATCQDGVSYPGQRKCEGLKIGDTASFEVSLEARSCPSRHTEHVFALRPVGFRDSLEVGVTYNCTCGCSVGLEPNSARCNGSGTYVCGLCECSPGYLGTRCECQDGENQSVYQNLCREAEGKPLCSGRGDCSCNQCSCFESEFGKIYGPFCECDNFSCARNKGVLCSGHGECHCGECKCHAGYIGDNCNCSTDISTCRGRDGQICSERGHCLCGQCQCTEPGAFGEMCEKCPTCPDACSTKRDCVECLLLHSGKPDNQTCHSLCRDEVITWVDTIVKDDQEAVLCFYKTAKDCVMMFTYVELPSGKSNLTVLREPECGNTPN
T1 sequence (P06756 31-992, chain 1 of 2): as the sequence (P06756 31-992, chain 1 of 2) above
T1 sequence (P05106 27-718, chain 2 of 2): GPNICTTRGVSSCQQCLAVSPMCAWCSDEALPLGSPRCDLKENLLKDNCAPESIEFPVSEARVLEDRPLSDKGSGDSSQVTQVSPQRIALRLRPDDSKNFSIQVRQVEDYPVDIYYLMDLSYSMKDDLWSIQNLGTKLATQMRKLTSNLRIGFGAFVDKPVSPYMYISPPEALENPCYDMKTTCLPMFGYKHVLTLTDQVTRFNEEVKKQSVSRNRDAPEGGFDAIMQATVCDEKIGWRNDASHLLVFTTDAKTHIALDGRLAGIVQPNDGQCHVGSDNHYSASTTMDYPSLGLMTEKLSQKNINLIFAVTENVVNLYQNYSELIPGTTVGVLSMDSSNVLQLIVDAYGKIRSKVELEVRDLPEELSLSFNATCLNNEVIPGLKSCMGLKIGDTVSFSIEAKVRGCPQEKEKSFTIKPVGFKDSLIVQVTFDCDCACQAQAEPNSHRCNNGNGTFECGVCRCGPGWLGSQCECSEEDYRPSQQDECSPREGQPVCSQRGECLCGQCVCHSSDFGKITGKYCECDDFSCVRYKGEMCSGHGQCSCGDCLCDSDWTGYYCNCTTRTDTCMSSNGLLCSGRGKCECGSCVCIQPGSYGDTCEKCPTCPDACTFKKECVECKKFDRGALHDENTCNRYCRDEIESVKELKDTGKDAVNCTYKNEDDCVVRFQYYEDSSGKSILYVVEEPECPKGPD

B1: soluble MICA generated by pKK41 (loop 5.2 in loop 1) (designed binder)
chain: HHHHHHEPHSLRYNLTVLSWDGSVQSGFLTEVHLDGQPFLRCDRQKCRAKPQGQWAEDVLGNKTWDRETRDLTGNGKDLRMTLAHIKDQKEGLHSLQEIRVCEIHEDNSTRSSQHFYYDGELFLSQNLETEEWTMPQSSRAQTLAMNVRNFLKEDAMKTKTHYHAMHADCLQELRRYLKSGVVLRRTVPPMVNVTRGDTFTQSVTCRASGFYPWNITLSWRQDGVSLSHDTQQWGDVLPDGNGTYQTWVATRICQGEEQRFTCYMEHSGNHSTHPVPSGK
B1: in the assay with integrin αVβ3 [1], the signal worked out at 0.516 OD and the signal/ng is 17.7 signal/ng. In the assay with integrin αVβ5 [2], this molecule gave a signal of 0.65 OD and a signal/ng of 22.4 signal/ng.

B2: soluble MICA generated by pKK36 (loop 3.1 in loop 1) (designed binder)
chain: HHHHHHEPHSLRYNLTVLSWDGSVQSGFLTEVHLDGQPFLRCDRQKCRAKPQGQWAEDVLGNKTWDRETRDLTGNGKDLRMTLAHIKDQKEGLHSLQEIRVCEIHEDNSTRSSQHFYYDGELFLSQNLETEEWTMPQSSRAQTLAMNVRNFLKEDAMKTKTHYHAMHADCLQELRRYLKSGVVLRRTVPPMVNVTSRGDHPRTQVTCRASGFYPWNITLSWRQDGVSLSHDTQQWGDVLPDGNGTYQTWVATRICQGEEQRFTCYMEHSGNHSTHPVPSGK
Regarding B2, the results for the signal with integrin αVβ3 [1] and with integrin αVβ5 [2] were 0.55 OD and 0.526 OD, respectively. For the same molecule, the signal/ng was determined as 19 signal/ng with integrin αVβ3 [1] and 18.1 signal/ng with integrin αVβ5 [2].

B3: soluble MICA generated by pKK44 (extended loop 3.2sp in loop 1) (designed binder)
chain: HHHHHHEPHSLRYNLTVLSWDGSVQSGFLTEVHLDGQPFLRCDRQKCRAKPQGQWAEDVLGNKTWDRETRDLTGNGKDLRMTLAHIKDQKEGLHSLQEIRVCEIHEDNSTRSSQHFYYDGELFLSQNLETEEWTMPQSSRAQTLAMNVRNFLKEDAMKTKTHYHAMHADCLQELRRYLKSGVVLRRTVPPMVNVTSGGSGGGSTSRGDHPRTQSGGSGGGVTCRASGFYPWNITLSWRQDGVSLSHDTQQWGDVLPDGNGTYQTWVATRICQGEEQRFTCYMEHSGNHSTHPVPSGK
In the assay with integrin αVβ3 [1], B3 returned a signal of 0.41 OD and a signal/ng of 8.92 signal/ng. In the assay with integrin αVβ5 [2], this molecule gave a signal of 0.46 OD and a signal/ng of 10 signal/ng.

B4: soluble MICA generated by pKK45 (extended loop 3.3sp in loop 1) (designed binder)
chain: HHHHHHEPHSLRYNLTVLSWDGSVQSGFLTEVHLDGQPFLRCDRQKCRAKPQGQWAEDVLGNKTWDRETRDLTGNGKDLRMTLAHIKDQKEGLHSLQEIRVCEIHEDNSTRSSQHFYYDGELFLSQNLETEEWTMPQSSRAQTLAMNVRNFLKEDAMKTKTHYHAMHADCLQELRRYLKSGVVLRRTVPPMVNVTSGGSGGGSRVPRGDSDLTSGGSGGGVTCRASGFYPWNITLSWRQDGVSLSHDTQQWGDVLPDGNGTYQTWVATRICQGEEQRFTCYMEHSGNHSTHPVPSGK
In the assay with integrin αVβ3 [1], B4 returned a signal of 0.393 OD and a signal/ng of 9.51 signal/ng. Moreover, in the assay with integrin αVβ5 [2], the signal came out at 0.41 OD and the signal/ng was 9.92 signal/ng.

B5: soluble MICA generated by pKK38 (loop 3.3 in loop 1) (designed binder)
chain: HHHHHHEPHSLRYNLTVLSWDGSVQSGFLTEVHLDGQPFLRCDRQKCRAKPQGQWAEDVLGNKTWDRETRDLTGNGKDLRMTLAHIKDQKEGLHSLQEIRVCEIHEDNSTRSSQHFYYDGELFLSQNLETEEWTMPQSSRAQTLAMNVRNFLKEDAMKTKTHYHAMHADCLQELRRYLKSGVVLRRTVPPMVNVTRVPRGDSDLTVTCRASGFYPWNITLSWRQDGVSLSHDTQQWGDVLPDGNGTYQTWVATRICQGEEQRFTCYMEHSGNHSTHPVPSGK
On to B5, for which, in the assay with integrin αVβ3 [1], the signal turned out to be 0.291 OD and the signal/ng came out at 30.7 signal/ng. In the assay with integrin αVβ5 [2], the signal was 0.291 OD and the signal/ng came to 30.7 signal/ng.

B6: soluble MICA generated by pKK40 (loop 5.1 in loop 1) (designed binder)
chain: HHHHHHEPHSLRYNLTVLSWDGSVQSGFLTEVHLDGQPFLRCDRQKCRAKPQGQWAEDVLGNKTWDRETRDLTGNGKDLRMTLAHIKDQKEGLHSLQEIRVCEIHEDNSTRSSQHFYYDGELFLSQNLETEEWTMPQSSRAQTLAMNVRNFLKEDAMKTKTHYHAMHADCLQELRRYLKSGVVLRRTVPPMVNVTVTRGDTFTQSVTCRASGFYPWNITLSWRQDGVSLSHDTQQWGDVLPDGNGTYQTWVATRICQGEEQRFTCYMEHSGNHSTHPVPSGK
In the assay with integrin αVβ3 [1], B6 came in with a signal of 0.485 OD and a signal/ng of 19.5 signal/ng. Besides, in the assay with integrin αVβ5 [2], the signal stood at 0.675 OD and the signal/ng was found to be 27.1 signal/ng.

B7: soluble MICA generated by pKK42 (loop 5.3 in loop 1) (designed binder)
chain: HHHHHHEPHSLRYNLTVLSWDGSVQSGFLTEVHLDGQPFLRCDRQKCRAKPQGQWAEDVLGNKTWDRETRDLTGNGKDLRMTLAHIKDQKEGLHSLQEIRVCEIHEDNSTRSSQHFYYDGELFLSQNLETEEWTMPQSSRAQTLAMNVRNFLKEDAMKTKTHYHAMHADCLQELRRYLKSGVVLRRTVPPMVNVTHLARGDDLTYVTCRASGFYPWNITLSWRQDGVSLSHDTQQWGDVLPDGNGTYQTWVATRICQGEEQRFTCYMEHSGNHSTHPVPSGK
B7: in the assay with integrin αVβ3 [1], the signal was 0.526 OD and the signal/ng worked out at 21.2 signal/ng. In the assay with integrin αVβ5 [2], this molecule gave a signal of 0.565 OD and a signal/ng of 22.8 signal/ng.

B8: soluble MICA generated by pKK39 (loop 3.4 in loop 1) (designed binder)
chain: HHHHHHEPHSLRYNLTVLSWDGSVQSGFLTEVHLDGQPFLRCDRQKCRAKPQGQWAEDVLGNKTWDRETRDLTGNGKDLRMTLAHIKDQKEGLHSLQEIRVCEIHEDNSTRSSQHFYYDGELFLSQNLETEEWTMPQSSRAQTLAMNVRNFLKEDAMKTKTHYHAMHADCLQELRRYLKSGVVLRRTVPPMVNVTRSARGDSDHRVTCRASGFYPWNITLSWRQDGVSLSHDTQQWGDVLPDGNGTYQTWVATRICQGEEQRFTCYMEHSGNHSTHPVPSGK
Turning to B8, the signal with integrin αVβ3 [1] is 0.482 OD; with integrin αVβ5 [2] it was 0.528 OD. Besides, the values for the signal/ng in the assay with integrin αVβ3 [1] and in the assay with integrin αVβ5 [2] were 18 signal/ng and 19.7 signal/ng, respectively.

B9: soluble MICA generated by pKK35 (His10sp in loop 3) (designed binder)
chain: EPHSLRYNLTVLSWDGSVQSGFLTEVHLDGQPFLRCDRQKCRAKPQGQWAEDVLGNKTWDRETRDLTGNGKDLRMTLAHIKDQKEGLHSLQEIRVCEIHEDNSTRSSQHFYYDGELFLSQNLETKEWTMPQSSRAQTLAMNVRNFLKEDAMKTKTHYHAMHADCLQELRRYLKSGVVLRRTVPPMVNVTRSEASEGNITVTCRASGFYPWNITLSWRQDGVSLSHDTQQWGDVLPDGNGTYQTWVATRISGGSGGGSHHHHHHHHHHSGGSGGGCYMEHSGNHSTHPVPSGK
In the assay with integrin αVβ3 [1], B9 registered a signal of 0.419 OD and a signal/ng of 2.46 signal/ng. For the same molecule, in the assay with integrin αVβ5 [2], the signal came out at 0.392 OD and the signal/ng stood at 2.31 signal/ng.

B10: soluble MICA generated by pKK51 (extended loop 5.3sp in loop 3) (designed binder)
chain: EPHSLRYNLTVLSWDGSVQSGFLTEVHLDGQPFLRCDRQKCRAKPQGQWAEDVLGNKTWDRETRDLTGNGKDLRMTLAHIKDQKEGLHSLQEIRVCEIHEDNSTRSSQHFYYDGELFLSQNLETKEWTMPQSSRAQTLAMNVRNFLKEDAMKTKTHYHAMHADCLQELRRYLKSGVVLRRTVPPMVNVTRSEASEGNITVTCRASGFYPWNITLSWRQDGVSLSHDTQQWGDVLPDGNGTYQTWVATRISGGSGGGSHLARGDDLTYSGGSGGGCYMEHSGNHSTHPVPSGK
As to B10, the signal with integrin αVβ3 [1] came to 0.694 OD; with integrin αVβ5 [2] it was 1.05 OD. In addition, the results for the signal/ng with integrin αVβ3 [1] and with integrin αVβ5 [2] were 7.2 signal/ng and 10.9 signal/ng, respectively.

B11: soluble MICA generated by pKK50 (extended loop 5.1sp in loop 3) (designed binder)
chain: EPHSLRYNLTVLSWDGSVQSGFLTEVHLDGQPFLRCDRQKCRAKPQGQWAEDVLGNKTWDRETRDLTGNGKDLRMTLAHIKDQKEGLHSLQEIRVCEIHEDNSTRSSQHFYYDGELFLSQNLETKEWTMPQSSRAQTLAMNVRNFLKEDAMKTKTHYHAMHADCLQELRRYLKSGVVLRRTVPPMVNVTRSEASEGNITVTCRASGFYPWNITLSWRQDGVSLSHDTQQWGDVLPDGNGTYQTWVATRISGGSGGGSVTRGDTFTQSSGGSGGGCYMEHSGNHSTHPVPSGK
On to B11, for which, in the assay with integrin αVβ3 [1], the signal turned out to be 0.546 OD and the signal/ng turned out to be 5.85 signal/ng. Further, in the assay with integrin αVβ5 [2], the signal came out at 0.721 OD and the signal/ng turned out to be 7.73 signal/ng.

B12: soluble MICA generated by pKK49 (extended loop 3.3sp in loop 3) (designed binder)
chain: EPHSLRYNLTVLSWDGSVQSGFLTEVHLDGQPFLRCDRQKCRAKPQGQWAEDVLGNKTWDRETRDLTGNGKDLRMTLAHIKDQKEGLHSLQEIRVCEIHEDNSTRSSQHFYYDGELFLSQNLETKEWTMPQSSRAQTLAMNVRNFLKEDAMKTKTHYHAMHADCLQELRRYLKSGVVLRRTVPPMVNVTRSEASEGNITVTCRASGFYPWNITLSWRQDGVSLSHDTQQWGDVLPDGNGTYQTWVATRISGGSGGGSRVPRGDSDLTSGGSGGGCYMEHSGNHSTHPVPSGK
In the assay with integrin αVβ3 [1], B12 registered a signal of 0.508 OD and a signal/ng of 5.86 signal/ng. Moreover, in the assay with integrin αVβ5 [2], the signal was 0.478 OD and the signal/ng worked out at 5.51 signal/ng.

B13: soluble MICA generated by pKK48 (extended loop 3.2sp in loop 3) (designed binder)
chain: EPHSLRYNLTVLSWDGSVQSGFLTEVHLDGQPFLRCDRQKCRAKPQGQWAEDVLGNKTWDRETRDLTGNGKDLRMTLAHIKDQKEGLHSLQEIRVCEIHEDNSTRSSQHFYYDGELFLSQNLETKEWTMPQSSRAQTLAMNVRNFLKEDAMKTKTHYHAMHADCLQELRRYLKSGVVLRRTVPPMVNVTRSEASEGNITVTCRASGFYPWNITLSWRQDGVSLSHDTQQWGDVLPDGNGTYQTWVATRISGGSGGGSTSRGDHPRTQSGGSGGGCYMEHSGNHSTHPVPSGK
In the assay with integrin αVβ3 [1], B13 displayed a signal of 0.478 OD and a signal/ng of 6.08 signal/ng. Besides, in the assay with integrin αVβ5 [2], the signal was 0.604 OD and the signal/ng was found to be 7.68 signal/ng.

B14: M13 phage pKK91 displaying MICA α3 domain with His10sp in loop 3 (designed binder, not shown: large carriers)
chain: TVPPMVNVTRSEASEGNITVTCRASGFYPWNITLSWRQDGVSLSHDTQQWGDVLPDGNGTYQTWVATRISGGSGGGSHHHHHHHHHHSGGSGGGCYMEHSGNHSTHPVPSGK
Turning to B14, the signal amounted to 0.303 OD in the assay with integrin αVβ3 [3] and 0.078 OD in the assay with integrin αVβ5 [4].

B15: soluble MICA generated by pKK37 (loop 3.2 in loop 1) (designed binder)
chain: HHHHHHEPHSLRYNLTVLSWDGSVQSGFLTEVHLDGQPFLRCDRQKCRAKPQGQWAEDVLGNKTWDRETRDLTGNGKDLRMTLAHIKDQKEGLHSLQEIRVCEIHEDNSTRSSQHFYYDGELFLSQNLETEEWTMPQSSRAQTLAMNVRNFLKEDAMKTKTHYHAMHADCLQELRRYLKSGVVLRRTVPPMVNVTRTSRGDHPRTQVTCRASGFYPWNITLSWRQDGVSLSHDTQQWGDVLPDGNGTYQTWVATRICQGEEQRFTCYMEHSGNHSTHPVPSGK
As to B15, in the assay with integrin αVβ3 [1], the signal came to 0.777 OD and the signal/ng was 22.4 signal/ng. Also, in the assay with integrin αVβ5 [2], the signal came to 0.779 OD and the signal/ng turned out to be 22.4 signal/ng.
